Test results published in PMC8326762, “A Small Molecule Inhibitor of Pex3–Pex19 Interaction Disrupts Glycosome Biogenesis and Causes Lethality in Trypanosoma brucei” (Frontiers in Cell and Developmental Biology, 2021).
One block for each molecule: values may come before it.

Legend:
TbPex3 = target: T1, TbPex3 (Trypanosoma brucei, UniProt Q383Q3); test: pull-down and MST with purified MBP-TbPex3 and NT-647-labeled His-TbPex19; inhibition of protein-protein interaction; format: binding
T1 construct: gene Tb11.01.2020; MBP fusion to TbPex3 (with 6 × His-TbPex19), recombinant from E. coli; with TbPex19

His-HsPex19 (human) [1] = target: His-HsPex19 (human) (UniProt P40855); test: MST; Monolith NT.115; MBP-Pex3 (0–2.5 μM) titrated into 100 nM NT-647-labeled His-Pex19; 50 mM Tris–HCl, pH 7.4, 150 mM NaCl, 10 mM MgCl2, 0.05% Tween-20
Sequence of His-HsPex19 (human) (P40855 whole entry): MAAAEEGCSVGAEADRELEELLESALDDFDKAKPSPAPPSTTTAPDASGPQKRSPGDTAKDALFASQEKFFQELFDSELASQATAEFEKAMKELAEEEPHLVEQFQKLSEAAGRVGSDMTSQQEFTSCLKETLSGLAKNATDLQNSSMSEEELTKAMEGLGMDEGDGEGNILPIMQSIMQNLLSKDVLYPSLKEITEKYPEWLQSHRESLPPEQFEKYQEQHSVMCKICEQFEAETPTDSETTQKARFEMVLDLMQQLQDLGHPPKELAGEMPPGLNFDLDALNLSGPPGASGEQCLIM

His-HsPex19 (human) [2] = target: His-HsPex19 (human) (UniProt P40855); test: MST; Monolith NT.115; 100 nM each of NT-647-labeled His-Pex19 and MBP-Pex3 with DMNQ titrated from 3 nM to 100 μM; apparent
His-TbPex19 (T. brucei) [3] = test: MST; Monolith NT.115; MBP-Pex3 (0–2.5 μM) titrated into 100 nM NT-647-labeled His-Pex19; 50 mM Tris–HCl, pH 7.4, 150 mM NaCl, 10 mM MgCl2, 0.05% Tween-20
His-TbPex19 (T. brucei) [4] = test: MST; Monolith NT.115; 100 nM each of NT-647-labeled His-Pex19 and MBP-Pex3 with DMNQ titrated from 3 nM to 100 μM; apparent

Molecule: COC1=C(OC)C(=O)c2ccccc2C1=O [2,3-dimethoxy-1,4-naphthoquinone]
pull-down and MST with purified MBP-TbPex3 and NT-647-labeled His-TbPex19; inhib (TbPex3): 39.6 ± 0.86 µM

Kd (His-HsPex19 (human) [1]): 4.37 nM | KD with DMNQ titrated in (His-HsPex19 (human) [2]): 14.5 nM
Molecule: MBP-HsPex3 (from UniProt P56589 1-373) (natural protein)

Kd (His-TbPex19 (T. brucei) [3]): 3.8 nM | apparent KD with DMNQ titrated in (His-TbPex19 (T. brucei) [4]): 39600 nM
Molecule: MBP-TbPex3 (natural protein)
